Assay results from patent US20230201361.

Tests used:
[1] = target: control peptide, an HES-bearing peptide of the same length, with the same labeling, that does not contain the conformation-dependent cleavage site
[2] = target: eighteen amino acid peptide containing the amino acid sequence PLGIA, covalently labeled with the same fluorophore near each end (HES structure)

B1: MMP-19 (protein)
chain: YLLLGRWRKKHLTFRILNLPSTLPPHTARAALRQAFQDWSNVAPLTFQEVQAGAADIRLSFHGRQSSYCSNTFDGPGRVLAHADIPELGSVHFDEDEFWTEGTYRGVNLRIIAAHEVGHALGLGHSRYSQALMAPVYEGYRPHFKLHPDDVAGIQALYGKKSPVIRDEEEEETELPTVPPVPTEPSPMPDPCSSELDAMMLGPRGKTYAFKGDYVWTVSDSGPGPLFRVSALWEGLPGNLDAAVYSPRTQWIHFFKGDKVWRYINFKMSPGFPKKLNRVEPNLDAALYWPLNQKVFLFKGSGYWQWDELARTDFSSYPKPIKGLFTGVPNQPSAAMSWQDGRVYFFKGKVYWRLNQQLRVEKGYPRNISHNWMHCRPRTIDTTPSGGNTTPSGTGITLDTTLSATETTFEY
[1]
  fluorescence intensity: The fluorescence of the latter does not increase upon addition of the MMP
[2]
  fluorescence intensity: Cleavage of the peptide gives rise to an increase in fluorescence intensity
